Results: patent CN113999303A (BEIJING GENESEE BIOLOGICAL TECH CO LTD, dated 2022)

Molecular target: T1, 新型冠状病毒核衣壳蛋白 (SARS-COV-2, UniProt P0DTC9 1-419)
T1 construct: also called SARS-COV-2 nucleocapsid protein; N protein
Test: ELISA screening of mouse hybridomas for antigen-specific antibodies

B1: 新型冠状病毒核衣壳抗体 mAb#9 (antibody, V domains shown)
VH: EVQLVESGGGLVKPGGSLKLSCAASGITFSDYYMYWVRQTPEKRLEWVATISDGGSYTYYPDSVKGRFTISRDNAKNNLYLQMSSLKSEDTAMYYCVRDKSMGFGAWFAYWGQGTLVTVSA
VL: EIVLTQSPTTMAASPGEKITITCSASSSISSNYLHWYQQRPGFSPKLLIYRTSNLASGVPARFSGSGSGTSYSLTIGTMEAEDVATYYCQQGHSIPYTFGGGTKLEIK
notes: also called 第二新型冠状病毒核衣壳蛋白抗体
B1: binds.
